Assay results as given in the supplement of paper PMC10724198.
± gives the standard deviation of the averaged measurements.

System: Saccharomyces cerevisiae
Assay: protein stability index of tFT-peptide fusion (C-terminal peptide) (PSI (0-1 scale)); higher = more stable (slower turnover)
Conditions: genetic background: das1 deletion; temperature: 30 C
Experimental: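 MPS profiling in S. cerevisiae of the yeast C-terminome library: the last 12 aa of each annotated ORF are fused to the C-terminus of a sfGFP-mCherry timer, after a GGGS linker. Cells are FACS-sorted into 8 mCherry/sfGFP bins and deep-sequenced. PSI runs from 0 (unstable) to 1 (stable); wild type and das1Δ backgrounds, two technical replicates each.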

First: PVIKKSKKCAIL [CDC42 C-terminal 12 aa]
Second: PVRHQTGMHFCI [YHR032W-A C-terminal 12 aa]
The protein stability index of the first is higher: 0.757 ± 0.0059 for the first, 0.721 ± 0.009 for the second.

PVVFHSGPVVWK [YLR415C C-terminal 12 aa] and PYLEEAYSNLEE [PPX1 C-terminal 12 aa] are within error of each other in protein stability index: 0.72 ± 0.034 for the first, 0.685 ± 0.0024 for the second.

QCPVCRSPLPPL [TUL1 C-terminal 12 aa] and QEAGAFTFNEDF [RNR2 C-terminal 12 aa] are within error of each other in protein stability index: 0.714 ± 0.023 for the first, 0.726 ± 0.018 for the second.

Going from “QEFVCFLFWPLT [YOR335W-A C-terminal 12 aa]” to QELCADSTIYHM [LIP1 C-terminal 12 aa], the protein stability index rises from 0.63 ± 0.0097 to 0.687 ± 0.017.

Going from QELLKLLENEKK [SLK19 C-terminal 12 aa] to “QFSFKAVTFLLI [YOR314W-A C-terminal 12 aa]”, the protein stability index falls from 0.727 ± 0.029 to 0.629 ± 0.048.

QILLDKLNAVKK [HIT1 C-terminal 12 aa] and QKDSRGKKKIKK [YMR114C C-terminal 12 aa] are within error of each other in protein stability index: 0.66 ± 0.03 for the first, 0.691 ± 0.026 for the second.

Compared with QKKEEAKHKASE [UFD2 C-terminal 12 aa], QNNSQGFLREII [TDA7 C-terminal 12 aa] is lower in protein stability index: 0.711 ± 0.0087 for the first, 0.6961 ± 0.004 for the second.

QNRFISINKIFW [YDR133C C-terminal 12 aa] and QRRTSLDYGGYF [TAF3 C-terminal 12 aa] are within error of each other in protein stability index: 0.7034 ± 0.0032 for the first, 0.708 ± 0.02 for the second.

QSLVESPPPYVP [SNA4 C-terminal 12 aa] and QTQLCKRKKKLT [VIK1 C-terminal 12 aa] are within error of each other in protein stability index: 0.6915 ± 0.0048 for the first, 0.687 ± 0.024 for the second.

QTVSTYTKVTPK [NCE103 C-terminal 12 aa] and QVLGTEEPTVRT [PGM2 C-terminal 12 aa] are within error of each other in protein stability index: 0.715 ± 0.016 for the first, 0.696 ± 0.046 for the second.

QVVDTIKDVHRC [YBR197C C-terminal 12 aa] and RALVDAIQLRGV [CGI121 C-terminal 12 aa] are within error of each other in protein stability index: 0.7 ± 0.027 for the first, 0.68 ± 0.024 for the second.

First: RDFFFKNVCVKM [TBS1 C-terminal 12 aa]
Second: RDLQSALVRQLL [CAD1 C-terminal 12 aa]
The protein stability index of the first is lower: 0.623 ± 0.018 for the first, 0.718 ± 0.025 for the second.

Going from RDRLVESCHFTQ [CIN4 C-terminal 12 aa] to RDVTDWWESREI [CCZ1 C-terminal 12 aa], the protein stability index rises from 0.722 ± 0.023 to 0.7553 ± 0.0041.

First: REKAEAEAEKKK [RPL13A C-terminal 12 aa]
Second: RELGFLFGLNAL [ULS1 C-terminal 12 aa]
The protein stability index of the first is lower: 0.704 ± 0.014 for the first, 0.751 ± 0.011 for the second.

RELWDEEKEIVL [KES1 C-terminal 12 aa] and RERAKKLVTWLI [SSY1 C-terminal 12 aa] are within error of each other in protein stability index: 0.704 ± 0.033 for the first, 0.6701 ± 0.0019 for the second.

Going from RFIRTANKKDYL [IMP4 C-terminal 12 aa] to “RHHEQSHGQEDH [YLR361C-A C-terminal 12 aa]”, the protein stability index rises from 0.671 ± 0.0071 to 0.6985 ± 0.0034.

Going from RHICVGAKLCKF [MCH4 C-terminal 12 aa] to RHSCGRQMRVLA [AUA1 C-terminal 12 aa], the protein stability index falls from 0.8165 ± 0.0035 to 0.6614 ± 0.0011.

RIEMDLALTEPL [ORC6 C-terminal 12 aa] and RIRQEIIKTKLL [EMP47 C-terminal 12 aa] are within error of each other in protein stability index: 0.691 ± 0.016 for the first, 0.67995 ± 0.00042 for the second.

First: RKESSGGCCIIC [RAS1 C-terminal 12 aa]
Second: RKLLERSNKFHI [PET127 C-terminal 12 aa]
The protein stability index of the first is higher: 0.738 ± 0.014 for the first, 0.689 ± 0.009 for the second.

RKPPGFFDEGFM [FLC3 C-terminal 12 aa] and “RKSENYLNGRQT [YNL067W-B C-terminal 12 aa]” are within error of each other in protein stability index: 0.733 ± 0.061 for the first, 0.681 ± 0.017 for the second.

Compared with RKVPYKIIPYVY [ERG24 C-terminal 12 aa], RLANIQSFFQRQ [TVP23 C-terminal 12 aa] is higher in protein stability index: 0.514 ± 0.019 for the first, 0.7155 ± 0.0018 for the second.

RLIGELGKLTED [YNL115C C-terminal 12 aa] and RLLNLQKVIYST [LDB18 C-terminal 12 aa] are within error of each other in protein stability index: 0.683 ± 0.0088 for the first, 0.662 ± 0.013 for the second.

RMIEYLEEYQAW [FRE4 C-terminal 12 aa] and RNIDVSNLPSLA [STM1 C-terminal 12 aa] are within error of each other in protein stability index: 0.706 ± 0.0073 for the first, 0.691 ± 0.011 for the second.

RQVLDREGLRFG [TRS31 C-terminal 12 aa] and RRDVQSRSSMAC [HFL1 C-terminal 12 aa] are within error of each other in protein stability index: 0.693 ± 0.027 for the first, 0.702 ± 0.02 for the second.

RREKRNKALKER [CGR1 C-terminal 12 aa] and RRKLKGRWFLSH [MRX14 C-terminal 12 aa] are within error of each other in protein stability index: 0.7064 ± 0.0034 for the first, 0.702 ± 0.0078 for the second.

Compared with “RRRLTYHRYHPK [YML009C-A C-terminal 12 aa]”, RSASNRHVDYFL [PPG1 C-terminal 12 aa] is lower in protein stability index: 0.731 ± 0.014 for the first, 0.6933 ± 0.0059 for the second.

Going from RSKLFNLSINNP [SPC72 C-terminal 12 aa] to RSRKNEGSYLMH [HMT1 C-terminal 12 aa], the protein stability index falls from 0.6997 ± 0.001 to 0.6967 ± 0.00082.

RSVYDYNGSLKV [CSR1 C-terminal 12 aa] and RTKGQKWFDGLM [NAT2 C-terminal 12 aa] are within error of each other in protein stability index: 0.686 ± 0.012 for the first, 0.6819 ± 0.0031 for the second.

RTSPIDNVSNTH [NUT2 C-terminal 12 aa] and RYNDERLGPVQG [IRC24 C-terminal 12 aa] are within error of each other in protein stability index: 0.693 ± 0.0018 for the first, 0.696 ± 0.021 for the second.

“SAGSLEYTARYM [YML012C-A C-terminal 12 aa]” and SANGYKRRRYGN [YHC1 C-terminal 12 aa] are within error of each other in protein stability index: 0.693 ± 0.036 for the first, 0.716 ± 0.019 for the second.

SASGKKKINKNN [ELO1 C-terminal 12 aa] and SDDNNDENMDLD [SSE2 C-terminal 12 aa] are within error of each other in protein stability index: 0.6991 ± 0.0036 for the first, 0.694 ± 0.014 for the second.

SDDQILREFLYS [IRE1 C-terminal 12 aa] and SDISDLDDLGFL [RPN3 C-terminal 12 aa] are within error of each other in protein stability index: 0.726 ± 0.004 for the first, 0.7213 ± 0.0065 for the second.

SDLQKMLNKRKS [CWC24 C-terminal 12 aa] and SDMYDSKRLLYV [YPL035C C-terminal 12 aa] are within error of each other in protein stability index: 0.69 ± 0.025 for the first, 0.652 ± 0.033 for the second.

SELENKFSNQES [FPY1 C-terminal 12 aa] and SETFATPTPNNR [SPC42 C-terminal 12 aa] are within error of each other in protein stability index: 0.7048 ± 0.0039 for the first, 0.718 ± 0.022 for the second.

Compared with SFALVFKISAEV [YAR053W C-terminal 12 aa], SFDDGRVKRQRT [IOC3 C-terminal 12 aa] is higher in protein stability index: 0.448 ± 0.046 for the first, 0.69 ± 0.014 for the second.

SFMSYSCDMPTP [YCL022C C-terminal 12 aa] and SFNFDHFDHFDL [YIL054W C-terminal 12 aa] are within error of each other in protein stability index: 0.7225 ± 0.0042 for the first, 0.733 ± 0.019 for the second.

SGGWDRSIKLWN [PRP4 C-terminal 12 aa] and SGNYFFLDNTGI [RLI1 C-terminal 12 aa] are within error of each other in protein stability index: 0.711 ± 0.01 for the first, 0.718 ± 0.015 for the second.

First: SGSGVHVIKRVG [ESS1 C-terminal 12 aa]
Second: SGWSNFEDFFSR [YKL222C C-terminal 12 aa]
The protein stability index of the first is lower: 0.701 ± 0.0075 for the first, 0.744 ± 0.021 for the second.

Going from SIKLTFGFGAVL [AHA1 C-terminal 12 aa] to SIQWIWRYSFVY [YIR020C C-terminal 12 aa], the protein stability index falls from 0.6981 ± 0.0022 to 0.464 ± 0.0072.

SKDLGNVLTNLL [ESF2 C-terminal 12 aa] and SKFIEKFQDIVS [MED1 C-terminal 12 aa] are within error of each other in protein stability index: 0.6902 ± 0.005 for the first, 0.701 ± 0.014 for the second.

SKKNVLYQKKNN [RTT107 C-terminal 12 aa] and SKLVKEYSVELR [MSF1 C-terminal 12 aa] are within error of each other in protein stability index: 0.69 ± 0.0099 for the first, 0.687 ± 0.019 for the second.
